Measured values from patent publication US11912789 (INTERK PEPTIDE THERAPEUTICS, dated 2024).
Read-outs that look alike come from different tables or passages of the source. No end group written: not given here. 2Adod = 2-amino-dodecanoic acid; 2Adec = 2-amino-decanoic acid; 12Ado = NCCCCCCCCCCCC(=O)O

Key:
Assay in all cases: cell-based or functional assay
[1] = target: T1, Lymphocyte-specific protein tyrosine kinase (Lck), enzyme in cell-free kinase assay (human, UniProt P06239 1-509, limits assumed)
T1 sequence (P06239 whole entry): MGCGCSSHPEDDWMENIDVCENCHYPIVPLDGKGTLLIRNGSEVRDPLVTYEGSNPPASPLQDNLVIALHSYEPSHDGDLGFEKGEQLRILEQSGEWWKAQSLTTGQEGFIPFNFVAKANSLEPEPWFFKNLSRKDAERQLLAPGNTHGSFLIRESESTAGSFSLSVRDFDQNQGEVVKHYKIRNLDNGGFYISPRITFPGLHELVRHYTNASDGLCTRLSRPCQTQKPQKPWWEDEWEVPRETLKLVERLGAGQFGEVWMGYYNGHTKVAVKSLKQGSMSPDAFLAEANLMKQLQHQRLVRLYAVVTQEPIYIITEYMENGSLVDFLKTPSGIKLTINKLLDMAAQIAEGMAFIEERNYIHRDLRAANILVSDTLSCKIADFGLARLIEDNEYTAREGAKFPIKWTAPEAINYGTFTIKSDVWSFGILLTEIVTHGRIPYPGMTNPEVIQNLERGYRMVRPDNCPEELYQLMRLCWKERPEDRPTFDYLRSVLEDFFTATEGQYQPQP

[2] = target: T1, Lymphocyte-specific protein tyrosine …; remark: listed apart in the source
[3] = target: T1, Lymphocyte-specific protein tyrosine …; remark: listed apart in the source
[4] = target: T1, Lymphocyte-specific protein tyrosine …; remark: listed apart in the source
Hck = Hck (UniProt P08631 251-518, limits assumed)
Sequence of Hck (P08631 251-518 limits assumed): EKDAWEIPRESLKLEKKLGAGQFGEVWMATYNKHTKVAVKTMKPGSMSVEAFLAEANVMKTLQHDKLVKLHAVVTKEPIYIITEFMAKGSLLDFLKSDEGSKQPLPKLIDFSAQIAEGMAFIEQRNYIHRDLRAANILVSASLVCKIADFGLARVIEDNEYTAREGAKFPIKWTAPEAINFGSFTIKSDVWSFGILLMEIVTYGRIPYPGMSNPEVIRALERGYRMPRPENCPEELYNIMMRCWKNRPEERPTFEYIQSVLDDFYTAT

Fgr = Fgr (UniProt P09769 1-529, limits assumed)
Fyn = Fyn (UniProt P06241 1-537, limits assumed)
Sequence of Fyn (P06241 whole entry): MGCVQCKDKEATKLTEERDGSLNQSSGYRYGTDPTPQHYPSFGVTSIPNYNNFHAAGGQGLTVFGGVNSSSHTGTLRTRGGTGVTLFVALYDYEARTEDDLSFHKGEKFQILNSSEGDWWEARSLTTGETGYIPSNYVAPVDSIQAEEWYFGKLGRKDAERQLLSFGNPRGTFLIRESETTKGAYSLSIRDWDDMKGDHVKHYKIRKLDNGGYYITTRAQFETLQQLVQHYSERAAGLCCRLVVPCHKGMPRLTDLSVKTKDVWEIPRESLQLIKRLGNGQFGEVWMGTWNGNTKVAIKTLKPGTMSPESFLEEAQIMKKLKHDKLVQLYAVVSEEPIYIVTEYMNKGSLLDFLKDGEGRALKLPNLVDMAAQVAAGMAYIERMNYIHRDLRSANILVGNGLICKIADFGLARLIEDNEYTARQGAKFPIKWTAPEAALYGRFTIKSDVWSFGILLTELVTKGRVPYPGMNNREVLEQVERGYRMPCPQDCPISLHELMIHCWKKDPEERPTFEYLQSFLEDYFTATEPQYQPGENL

Blk = Blk (UniProt P51451 1-505, limits assumed)
Sequence of Blk (P51451 whole entry): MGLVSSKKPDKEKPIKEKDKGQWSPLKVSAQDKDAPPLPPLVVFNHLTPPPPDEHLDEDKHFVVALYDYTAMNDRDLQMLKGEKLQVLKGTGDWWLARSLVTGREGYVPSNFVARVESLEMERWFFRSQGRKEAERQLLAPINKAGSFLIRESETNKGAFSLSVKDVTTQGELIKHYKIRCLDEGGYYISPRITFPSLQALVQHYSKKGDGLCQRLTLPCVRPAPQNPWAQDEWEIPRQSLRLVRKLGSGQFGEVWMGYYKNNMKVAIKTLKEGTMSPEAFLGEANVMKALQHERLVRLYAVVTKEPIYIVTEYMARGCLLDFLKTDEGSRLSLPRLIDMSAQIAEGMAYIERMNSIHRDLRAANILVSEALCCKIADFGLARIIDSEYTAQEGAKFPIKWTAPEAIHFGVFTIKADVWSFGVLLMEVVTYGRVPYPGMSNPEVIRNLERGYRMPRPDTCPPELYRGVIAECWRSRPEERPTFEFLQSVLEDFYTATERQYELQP

cSRC = cSRC (UniProt P12931 1-536, limits assumed)
Yes = Yes (UniProt P07947 1-543, limits assumed)
Sequence of Yes (P07947 whole entry): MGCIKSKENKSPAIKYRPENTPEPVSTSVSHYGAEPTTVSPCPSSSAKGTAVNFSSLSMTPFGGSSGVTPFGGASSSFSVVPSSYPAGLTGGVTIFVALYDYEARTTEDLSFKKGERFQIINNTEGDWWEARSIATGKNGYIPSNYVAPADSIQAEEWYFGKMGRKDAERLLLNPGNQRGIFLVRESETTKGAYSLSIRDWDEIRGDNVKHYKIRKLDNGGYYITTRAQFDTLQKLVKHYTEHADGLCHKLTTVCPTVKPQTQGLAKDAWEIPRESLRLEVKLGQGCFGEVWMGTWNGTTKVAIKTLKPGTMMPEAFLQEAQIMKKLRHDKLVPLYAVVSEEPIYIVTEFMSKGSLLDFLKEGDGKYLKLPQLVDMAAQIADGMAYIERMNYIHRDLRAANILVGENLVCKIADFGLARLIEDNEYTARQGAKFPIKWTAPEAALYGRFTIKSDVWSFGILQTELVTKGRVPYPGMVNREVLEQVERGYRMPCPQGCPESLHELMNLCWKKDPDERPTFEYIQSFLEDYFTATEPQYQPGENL

Lyn = Lyn (UniProt P07948 1-512, limits assumed)
Sequence of Lyn (P07948 whole entry): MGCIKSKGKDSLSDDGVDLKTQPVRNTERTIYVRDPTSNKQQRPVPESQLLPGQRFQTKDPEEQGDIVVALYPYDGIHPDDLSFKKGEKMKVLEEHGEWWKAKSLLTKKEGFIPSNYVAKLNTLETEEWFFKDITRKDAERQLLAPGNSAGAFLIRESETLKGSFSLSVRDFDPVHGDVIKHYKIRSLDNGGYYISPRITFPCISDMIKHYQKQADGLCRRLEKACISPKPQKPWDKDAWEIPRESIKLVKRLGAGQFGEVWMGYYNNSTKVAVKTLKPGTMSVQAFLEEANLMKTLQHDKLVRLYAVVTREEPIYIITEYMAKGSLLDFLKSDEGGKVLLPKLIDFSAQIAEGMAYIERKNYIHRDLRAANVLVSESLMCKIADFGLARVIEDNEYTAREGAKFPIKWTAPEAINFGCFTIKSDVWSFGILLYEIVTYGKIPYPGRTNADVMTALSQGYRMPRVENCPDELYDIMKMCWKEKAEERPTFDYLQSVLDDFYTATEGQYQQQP

Binder	Lck Activation above control, 1 µM [1]	Lck Activation above control, 10 µM [1]	Lck Activation above control, 30 µM [1]	further results
RSRARNPLY	0%	0%	0%	–
RSKAKNPLYR-{12Ado-12Ado-12Ado-12Ado-NH2} [RSKAKNPLYR-(12-Adod)4-NH2]	–	–	–	Lck Activation above control, 1 µM [2]: 96%
RSKAKNPLYR-{2Adod-2Adod-2Adod-2Adod-OH} [RSKAKNPLYR-(2Adod)4-OH]	–	–	–	level of Lck activation relative to the amidated compound …-(2Adod)4-NH2 [3]: ~50%
RSKAKNPLYR-{2Adec-2Adec-2Adec-2Adec-NH2} [RSKAKNPLYR-(2-Adec)4-NH2]	–	–	–	Lck Activation above control, 1 µM [2]: 127%
RVKVKVVVV	518%	501%	363%	–
RSKAKNPLY	0%	186%	407%	Lck activity relative to control, peptide at 10 µM [4]: 186%; Hck activity relative to control, peptide at 10 µM (Hck): 0%; Fgr activity relative to control, peptide at 10 µM (Fgr): 0%; Fyn activity relative to control, peptide at 10 µM (Fyn): 0%; Blk activity relative to control, peptide at 10 µM (Blk): 0%; cSRC activity relative to control, peptide at 10 µM (cSRC): 0%; Yes activity relative to control, peptide at 10 µM (Yes): 0%; Lyn activity relative to control, peptide at 10 µM (Lyn): 0%
ASKAKNPLY	0%	0%	0%	–
RSAAKNPLY	0%	0%	0%	–
KEKLKNPLF	0%	0%	14%	–
RSKAKNPLYR-{2Adod-2Adod-2Adod-2Adod-NH2} [RSKAKNPLYR-(2Adod)4-NH2]	–	–	–	Lck Activation above control, 1 µM [2]: 499%
RYLPNKAKS	0%	0%	5%	–
RVKVKVVVVR	13%	183%	–	–
DSEAENPLYD-{2Adod-2Adod-2Adod-2Adod-NH2} [DSEAENPLYD-(2Adod)4-NH2]	–	–	–	Lck Activation above control, 1 µM [2]: 0%
RSKAANPLY	0%	0%	0%	–
RSKAKNPLYR	0%	0%	0%	Lck activity relative to control, peptide at 10 µM [4]: 0%; Hck activity relative to control, peptide at 10 µM (Hck): 0%; Fgr activity relative to control, peptide at 10 µM (Fgr): 0%; Fyn activity relative to control, peptide at 10 µM (Fyn): 0%; Blk activity relative to control, peptide at 10 µM (Blk): 0%; cSRC activity relative to control, peptide at 10 µM (cSRC): 0%; Yes activity relative to control, peptide at 10 µM (Yes): 0%; Lyn activity relative to control, peptide at 10 µM (Lyn): 0%
SKAKNPLYR	0%	0%	0%	–
